Laboratory results: the supplement of paper PMC9170038

Tested on: MS2 coat protein
Test: apparent KD of MS2 coat protein; designed switch direction (-1 OFF switch, 1 ON switch): 1; higher = weaker reporter binding
Summary of the method: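 Each step of the titration lasted 0.8–1.5 h at the lowest concentration and 10–20 min at the highest. The protein, SNAP-549-labelled MS2 coat protein, went from 0.7 or 1.5 nM doubling to 3 µM over RNA switches transcribed on Illumina chips by stalled E. coli RNA polymerase. Normalised cluster fluorescence was curve-fitted, and the per-design median over clusters is given as apparent KD.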

[1] = input ligand: microRNA oligo, concentration not stated
[2] = Eterna round: R95, input ligand: microRNA oligo, concentration not stated
[3] = Eterna round: R95, input ligand: FMN 200 uM
[4] = Eterna round: R95, input ligand: none

CUGAGAUGUCAAGGAUAUCACGUCGAUUAGACGUGAGAAGGUGAUCUGCACAUGAGGAUCACCCAUGUGUUACAUGGAACUCAG [Brourd's SSNG1/1-A2 mod 11] (Eterna round: R96, puzzle: Same State NG 1)
apparent KD of MS2 coat protein (input ligand: FMN 200 uM): 197 nM | apparent KD of MS2 coat protein [1]: 386 nM | apparent KD of MS2 coat protein (input ligand: none): 431 nM

CUGAGCAAUCGAGGAUAUCACGUCGAAUAGACGUGAGAAGGCGAUCAUAACAUGAGGAUCACCCAUGUAUUACAUGAAGCUCAG [SSNG1/4-A1] (Eterna round: R96, puzzle: Same State NG 1)
apparent KD of MS2 coat protein (input ligand: FMN 200 uM): 11.7 nM | apparent KD of MS2 coat protein [1]: 12.8 nM | apparent KD of MS2 coat protein (input ligand: none): 16.2 nM

CUGAGCAAUCUAGGAUAUCACGUCGUUUAGACGUGAGAAGGAGAUCAUAACAUGAGGAUCACCCAUGUAUUACAUGAAGCUCAG [SSNG1/7-A3] (Eterna round: R96, puzzle: Same State NG 1)
apparent KD of MS2 coat protein (input ligand: FMN 200 uM): 13.1 nM | apparent KD of MS2 coat protein [1]: 15.7 nM | apparent KD of MS2 coat protein (input ligand: none): 18.8 nM

CUGAGCAGUCAAGGAUAUCACGUCGAAUAGACGUGAGAAGGUGAUUAAUACAUGAGGAUCACCCAUGUAAUACAUGAAGCUCAG [SSNG1/11-A1] (Eterna round: R96, puzzle: Same State NG 1)
apparent KD of MS2 coat protein (input ligand: FMN 200 uM): 25.6 nM | apparent KD of MS2 coat protein [1]: 33.5 nM | apparent KD of MS2 coat protein (input ligand: none): 46.6 nM

CUGAGCAGUCAAGGAUAUCACGUCGUUUAGACGUGAGAAGGUGAUUAAUACAUGAGGAUCACCCAUGUAAUACAUGAAGCUCAG [SSNG1/11-A3] (Eterna round: R96, puzzle: Same State NG 1)
apparent KD of MS2 coat protein (input ligand: FMN 200 uM): 20.9 nM | apparent KD of MS2 coat protein [1]: 30.9 nM | apparent KD of MS2 coat protein (input ligand: none): 42.5 nM

CUGCUCGUGUGAGGAUAUGCCGCCGUUUCGGCUGCAGAAGGUGCUACGUAACAUGAGGAUCACCCAUGUCUCUGUUGUUUCGUU [salish99_SSNG1_r04_949] (Eterna round: R96, puzzle: Same State NG 1)
apparent KD of MS2 coat protein (input ligand: FMN 200 uM): 37.4 nM | apparent KD of MS2 coat protein [1]: 35.2 nM | apparent KD of MS2 coat protein (input ligand: none): 34 nM

CUGCUCGUGUGAGGAUAUGCCGCCGUUUCGGCUGCAGAAGGUGCUACGUUACAUGAGGAUCACCCAUGUCUCUGUUGUUUCGUG [salish99_SSNG1_r04_944] (Eterna round: R96, puzzle: Same State NG 1)
apparent KD of MS2 coat protein (input ligand: FMN 200 uM): 20.7 nM | apparent KD of MS2 coat protein [1]: 15.8 nM | apparent KD of MS2 coat protein (input ligand: none): 22.8 nM

CUGUGUUGCGGGCAGGAUAUGUAUUGGAGUACAUGAGGAUCACCCAUGUGCGGGUGUUUCACCCGACAGAAGGGCCAAUCGCGAC [JL-ss2-3.22 ViennaUCT mod] (puzzle: Same State 2)
apparent KD of MS2 coat protein [2]: 76.7 nM

GAAAGCAACGGAGGAUAUUCGCGUACGUUGGACGAAGAAGGCCGACAUGAGGAUCACCCAUGUACGAAUCACGCCAUAGCAUUA [Eternabot solution 12] (Eterna round: R96, puzzle: Same State NG 1)
apparent KD of MS2 coat protein (input ligand: FMN 200 uM): 23.9 nM | apparent KD of MS2 coat protein [1]: 16.4 nM | apparent KD of MS2 coat protein (input ligand: none): 19.7 nM

GAAAGCAUGGGAGGAUAUAGCCUCUAUGAAAGGCUAGAAGGCCCUGGCCACAUGAGGAUCACCCAUGUGAAAUAAAUAGAAGAA [Raarceza] (Eterna round: R96, puzzle: Same State NG 1)
apparent KD of MS2 coat protein (input ligand: FMN 200 uM): 28.9 nM | apparent KD of MS2 coat protein [1]: 96.9 nM | apparent KD of MS2 coat protein (input ligand: none): 218 nM

GAAAUAUAACAUGAGGAUCACCCAUGUACAUUGGUACGGCGGAAGGAUAUGAAAGACAUGGUCAAUUAGAAGGUCCUAUCAAAA [Eternabot solution 50] (Eterna round: R96, puzzle: Same State NG 3)
apparent KD of MS2 coat protein (input ligand: FMN 200 uM): 102 nM | apparent KD of MS2 coat protein [1]: 114 nM | apparent KD of MS2 coat protein (input ligand: none): 139 nM

GAAUAACAUGAGGAUCACCCAUGUAAUAUAAUGGGAGGAUAUCUGAAUUAAUUAUAUUAAGGAGAAGGCCUAUAUG [Mat - Same State 1 - Mod of Eli - D54] (puzzle: Same State 1)
apparent KD of MS2 coat protein [3]: 51.6 nM | apparent KD of MS2 coat protein [2]: 204 nM | apparent KD of MS2 coat protein [4]: 260 nM

GACAAUCUAUCUGAGGAUAUCAUGAGAAGAACAUGAGGAUCACCCAUGUGCAGGAAAACUGCAUAUGAGAAGGCAGAUAGAUUGA [Mat - Same State 2 - Mod - D16] (puzzle: Same State 2)
apparent KD of MS2 coat protein [3]: 43.7 nM | apparent KD of MS2 coat protein [2]: 1600 nM | apparent KD of MS2 coat protein [4]: 1820 nM

GACCGCGAGGGAGGAUAUGGAGCCUUAUUGGCUCCAGAAGGUCCAUAAGGGACAUGAGGAUCACCCAUGUGGGUUGAAGCGGUC [Fiskers NG1ss - 36] (Eterna round: R96, puzzle: Same State NG 1)
apparent KD of MS2 coat protein [1]: 108 nM

GAGAAUCUAUCUCAGGAUAUCAUGUCAAAGACAUGAGGAUCACCCAUGUACCAGGAAACUGGUUAUGAGAAGGGAGAUAGAUUCA [Mat - Same State 2 - Mod - D35] (puzzle: Same State 2)
apparent KD of MS2 coat protein [3]: 103 nM | apparent KD of MS2 coat protein [2]: 26.2 nM | apparent KD of MS2 coat protein [4]: 224 nM

GAGAGAUGAUUAGGAUAUACGGUGAUAAUGAUAGUAGAAGGAAUUGACAUGAGGAUCACCCAUGUGGGAAUAAUCCAGAGAGAG [Parity 22 - Jieux - Same State NG 1] (Eterna round: R96, puzzle: Same State NG 1)
apparent KD of MS2 coat protein (input ligand: FMN 200 uM): 100 nM | apparent KD of MS2 coat protein [1]: 127 nM | apparent KD of MS2 coat protein (input ligand: none): 162 nM

GAGGAUGAUUUACAGGAUAUAUAGGAGAUGACAUGAGGAUCACCCAUGUAAGAGAGAGGAGGGAGAUAGAAGGGUAAGGGAUGUG [JR_SS2_Sub42] (puzzle: Same State 2)
apparent KD of MS2 coat protein [3]: 44.3 nM | apparent KD of MS2 coat protein [2]: 42.2 nM | apparent KD of MS2 coat protein [4]: 59.5 nM

GAGGGCGGAAACAACAUGAGGAUCACCCAUGUUGCCGAAAGGCAGGAUAUCCGGCGAAAGCAGAAGGAGAAGGGUCGAAAAGAA [AK SSNG3-V2-41] (Eterna round: R96, puzzle: Same State NG 3)
apparent KD of MS2 coat protein (input ligand: FMN 200 uM): 20.7 nM | apparent KD of MS2 coat protein [1]: 20 nM | apparent KD of MS2 coat protein (input ligand: none): 24.1 nM

GAGUAGUUAAAAGGAUAUUGAUUAUUGUAGGAUCAAGAAGGUUUUAACAUGAGGAUCACCCAUGUAGGACUAUUCCUGUGAAAA [Parity 92 - Jieux - Same State NG 1] (Eterna round: R96, puzzle: Same State NG 1)
apparent KD of MS2 coat protein [1]: 10.9 nM

GAGUAGUUAAAAGGAUAUUGAUUAUUGUAGGAUCAAGAAGGUUUUAACAUGAGGAUCACCCAUGUAGGACUAUUCCUGUGUAUC [Parity 90 - Jieux - Same State NG 1] (Eterna round: R96, puzzle: Same State NG 1)
apparent KD of MS2 coat protein [1]: 12 nM

GAGUAGUUGAAAGGAUAUGCAUUGUUAUAGAAUGCAGAAGGUUCUAACAUGAGGAUCACCCAUGUAGGACUAUUCCUGUGUAUC [Parity 80 - Jieux - Same State NG 1] (Eterna round: R96, puzzle: Same State NG 1)
apparent KD of MS2 coat protein [1]: 7.83 nM

GAGUAGUUGAAAGGAUAUUGAUUAUUGUAGGAUCAAGAAGGUUCUAACAUGAGGAUCACCCAUGUAGGACUAUUCCUGUGUAUC [Parity 89 - Jieux - Same State NG 1] (Eterna round: R96, puzzle: Same State NG 1)
apparent KD of MS2 coat protein [1]: 8.63 nM

GAGUAGUUGGGAGGAUAUGCAUUGUUAUAGAAUGCAGAAGGUUUUAACAUGAGGAUCACCCAUGUAGGACUAUUCCUGUGUAUC [Parity 71 - Jieux - Same State NG 1] (Eterna round: R96, puzzle: Same State NG 1)
apparent KD of MS2 coat protein (input ligand: FMN 200 uM): 12.9 nM | apparent KD of MS2 coat protein [1]: 11.9 nM | apparent KD of MS2 coat protein (input ligand: none): 15.6 nM

GAGUGGAAGUAAGGAUAUAUAAUGAUAAUCACAGUAGAAGGUACUAACAUGAGGAUCACCCAUGUAGGACUAUACCAGAGAGGG [Parity 44 - Jieux - Same State NG 1] (Eterna round: R96, puzzle: Same State NG 1)
apparent KD of MS2 coat protein [1]: 12.3 nM

GAGUGGCAGUUAGGAUAUGUAGUGAUAAUGAUAACAGAAGGAACAGACAUGAGGAUCACCCAUGUAGGACUAAUCCAGAGAGAG [Parity 35 - Jieux - Same State NG 1] (Eterna round: R96, puzzle: Same State NG 1)
apparent KD of MS2 coat protein (input ligand: FMN 200 uM): 26.2 nM | apparent KD of MS2 coat protein [1]: 25.7 nM | apparent KD of MS2 coat protein (input ligand: none): 34.2 nM

GAGUGGCGGUUAGGAUAUACAGUGAUAAUGAUAGUAGAAGGAACUGACAUGAGGAUCACCCAUGUAGGACUAAUCCAGAGAGAG [Parity 31 - Jieux - Same State NG 1] (Eterna round: R96, puzzle: Same State NG 1)
apparent KD of MS2 coat protein (input ligand: FMN 200 uM): 43.6 nM | apparent KD of MS2 coat protein [1]: 21.7 nM | apparent KD of MS2 coat protein (input ligand: none): 33.7 nM

GAUCGUUUGAUAGGAUAUCGCUAUACAUGAGGAUCACCCAUGUUUACCACGCUGGUUUUUCAUACCGAGAAGGAUUCUGAUGAC [salish99_SSNG02_r04_007] (Eterna round: R96, puzzle: Same State NG 2)
apparent KD of MS2 coat protein (input ligand: FMN 200 uM): 21.5 nM | apparent KD of MS2 coat protein [1]: 15.5 nM | apparent KD of MS2 coat protein (input ligand: none): 26.6 nM

GAUUAACAUGAGGAUCACCCAUGUCGUUUUAUGGGAGGAUAUACGUGGACCGUAGUCCGCGUAGAAGGCCUAAUUG [JL-ss1-3.23 janelle mod] (puzzle: Same State 1)
apparent KD of MS2 coat protein [2]: 97.3 nM
